T1: EphA2-Sam double mutant (H924N, R950A) (human, UniProt P29317 901-976, H924N | R950A)
T1 sequence (looked up): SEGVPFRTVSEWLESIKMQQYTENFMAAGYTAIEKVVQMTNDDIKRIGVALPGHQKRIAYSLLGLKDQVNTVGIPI

T2: Sam domain of the EphA2 receptor, polyHis-tag cut with thrombin (human, UniProt P29317 901-976)
T2 sequence (looked up): T1 sequence (looked up) with N24H, A50R

B1: Sam domain of the EphA2 receptor (domain or fragment, human, UniProt P29317 901-976, looked up)
chain: T1 sequence (looked up) with N24H, A50R
B2: Sam domain of Ship2 (Src homology 2 domain-containing phosphoinositide-5-phosphatase 2) (domain or fragment, human, UniProt O15357 1194-1258, looked up)
chain: SGLGEAGMSAWLRAIGLERYEEGLVHNGWDDLEFLSDITEEDLEEAGVQDPAHKRLLLDTLQLSK

For experiment [1], the target named is Arap3-Sam Sam (Homo sapiens) (UniProt Q8WWN8). Put plainly: ITC. As to conditions: cited from earlier work.
Sequence of Arap3-Sam Sam (Homo sapiens) (Q8WWN8 1-71): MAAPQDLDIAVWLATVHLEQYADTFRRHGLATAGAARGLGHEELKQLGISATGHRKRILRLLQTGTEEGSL
Experiment [2] addresses Sam domain of Ship2 (Src homology 2 domain-containing phosphoinositide-5-phosphatase 2) (human) (UniProt O15357). Put plainly: AUC.
The target of experiment [3] is B2. Put plainly: ITC. (Isothermal titration calorimetry measures the heat released or taken up as one component is titrated into another.)
In experiment [4] the target is T1, EphA2-Sam double mutant (H924N, R950A). Description: ITC.
Experiment [5] deals with B1. Put plainly: ITC.
In experiment [6] the target is T2, Sam domain of the EphA2 receptor, …. Description: ITC.

Positions count from the first letter of the chain named.

As usually defined, the Kd is the equilibrium constant for the complex coming apart. With Ship2-Sam Sam (from UniProt O15357), the Kd in experiment [1] is 0.1 µM.

“Sam domain of Ship2 (Src homology 2 domain-containing phosphoinositide-5-phosphatase 2) (from UniProt O15357 1194-1258) (domain or fragment)” had an equilibrium dissociation constant (Kd) in experiment [2] of 2000 µM.

In general, stoichiometry N refers to a count of units in the complex or per binding partner. In the case of B1, the “stoichiometry N” value in experiment [3] was determined as 1.

For the molecule B2, the equilibrium dissociation constant (Kd) in experiment [4] amounted to 1.8 ± 0.6 µM; in experiment [5], 0.75 ± 0.12 µM.

With Ac-EGLVHNGWDDLEFLSDITEEDL-NH2 [Shiptide (minimal peptide region of Ship2-Sam)], the Kd in experiment [6] came to 19 ± 3 µM.

The record behind these values is article PMC2674315 (Biochemistry, 2008).
